B1: MCvar1 PfEMP1 CIDRα2.8 domain (residues 576-745, C626S) [Plasmodium falciparum] / human CD36 ectodomain (residues 35-439) with C-terminal BAP tag, biotinylated [modified: biotin on the BAP tag (in vitro, BirA ligase); biotin on the BAP tag … (parent complex)
chain 1: EDKIMSYNAFFWMWVHDMLIDSIKWRDEHGRCINKDKGKTCIKGCNKKCISFQKWVEQKKTEWGKIKDHFRKQKDIPKDWTHDDFLQTLLMKDLLLEIIQDTYGDANEIKRIEALLEQAGVGGIDFAALAGLYTKGFVAEKDTTIDKLLQHEQKEADKCLKTHTDDTCPP
chain 2: QKTIKKQVVLEEGTIAFKNWVKTGTEVYRQFWIFDVQNPQEVMMNSSNIQVKQRGPYTYRVRFLAKENVTQDAEDNTVSFLQPNGAIFEPSLSVGTEADNFTVLNLAVAAASHIYQNQFVQMILNSLINKSKSSMFQVRTLRELLWGYRDPFLSLVPYPVTTTVGLFYPYNNTADGVYKVFNGKDNISKVAIIDTYKGKRNLSYWESHCDMINGTDAASFPPFVEKSQVLQFFSSDICRSIYAVFESDVNLKGIPVYRFVLPSKAFASPVENPDNYCFCTEKIISKNCTSYGVLDISKCKEGRPVYISLPHFLYASPDVSEPIDGLNPNEEEHRTYLDIEPITGFTLQFAKRLQVNLLVKPSEKIQVLKNLKRNYIVPILWLNETGTIGDEKANMFRSQVTGKIN

Variants of: B1
Assay: SPR; plateau of the top sensorgram (highest analyte concentration of the series); concentrations not given; parent: 62; read off a plot

Variant	response
chain 1 D75A	~20 RU

— paper PMC5052687 (2016)
